# Test results taken from paper PMC2396407.
# T1: TAp63γ (UniProt Q9H3D4-5 40-487)
# T1 sequence: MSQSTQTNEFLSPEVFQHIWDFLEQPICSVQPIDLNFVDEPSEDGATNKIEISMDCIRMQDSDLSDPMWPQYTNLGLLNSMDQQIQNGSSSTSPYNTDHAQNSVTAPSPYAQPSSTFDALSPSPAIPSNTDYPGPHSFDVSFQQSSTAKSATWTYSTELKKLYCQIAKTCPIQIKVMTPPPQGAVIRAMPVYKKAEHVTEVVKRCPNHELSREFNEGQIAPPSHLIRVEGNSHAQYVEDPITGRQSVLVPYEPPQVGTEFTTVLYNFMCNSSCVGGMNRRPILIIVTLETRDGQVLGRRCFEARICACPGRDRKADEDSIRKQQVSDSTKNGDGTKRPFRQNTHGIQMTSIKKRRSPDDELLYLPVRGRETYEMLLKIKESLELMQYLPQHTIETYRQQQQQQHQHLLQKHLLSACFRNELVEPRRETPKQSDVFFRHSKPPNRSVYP
# B1: p21 (p21WAF1/CIP1 p53 site) (dsDNA)
# DNA 1: GGCCATCAGGAACATGTCCCAACATGTTGAGCTCT
# DNA 2: AGAGCTCAACATGTTGGGACATGTTCCTGATGGCC
# B2: S100A2 site 2 mut-1 (dsDNA)
# DNA 1: GGGTGGGATTGGATTGAGGTGGATTTGGTTTCCTT
# DNA 2: AAGGAAACCAAATCCACCTCAATCCAATCCCACCC
# B3: S100A2 site 2 mut-2 (dsDNA)
# DNA 1: GGGTGGGATCATGTTGAGGCATGTTTGGTTTCCTT
# DNA 2: AAGGAAACCAAACATGCCTCAACATGATCCCACCC
# B4: mdm2 p53 site (dsDNA)
# DNA 1: GGGCGGCCGCTGGTCAAGTTGGGACACGTCCGG
# DNA 2: CCGGACGTGTCCCAACTTGACCAGCGGCCGCCC
# Legend:
# [1] = molecular target: T1, TAp63γ; test: EMSA, supershift
# [2] = molecular target: T2, p53 (UniProt P04637 1-393); test: EMSA, supershift
# [3] = molecular target: T1, TAp63γ; test: competition
# [4] = molecular target: T2, p53; test: competition
# [5] = molecular target: T1, TAp63γ; test: competition; remark: listed apart in the source
# [6] = molecular target: T2, p53; test: competition; remark: listed apart in the source
# [7] = molecular target: T1, TAp63γ; test: EMSA
# [8] = molecular target: T2, p53; test: EMSA
# T2 sequence (P04637 whole entry): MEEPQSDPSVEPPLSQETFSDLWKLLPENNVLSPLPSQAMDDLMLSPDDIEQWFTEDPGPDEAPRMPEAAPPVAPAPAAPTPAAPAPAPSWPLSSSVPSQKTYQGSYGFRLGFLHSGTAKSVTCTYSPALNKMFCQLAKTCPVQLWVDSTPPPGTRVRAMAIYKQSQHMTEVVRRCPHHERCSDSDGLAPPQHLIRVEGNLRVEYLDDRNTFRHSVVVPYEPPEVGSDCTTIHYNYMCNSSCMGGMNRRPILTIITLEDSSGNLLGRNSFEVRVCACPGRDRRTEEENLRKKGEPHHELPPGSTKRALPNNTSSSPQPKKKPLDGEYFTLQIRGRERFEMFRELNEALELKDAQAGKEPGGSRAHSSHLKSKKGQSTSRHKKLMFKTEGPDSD
binder,measurement,setting,value
B1,binding result,[1],binds
same,binding result,[2],binds
B2,binding result,[3],no binding
same,binding result,[4],no binding
B3,binding result,[5],binds
same,binding result,[6],binds
B4,binding result,[7],binds
same,binding result,[8],binds
